Source: a protein production outcome set (Wang et al. 2014)

Assay: label from the status in PepcDB records

Sequence	protein production
MSFASETKKELTHMDVSDSDAKVELAAFIRMNGAISFSNQLVIMDVQTENAAIARRMYQLLKDLYEVPIELLVRRKMKLKKNNVYIVRLKSGTRGILEDLRILEPPMTFTKSIDRGFVKKRSAKRAYLRGAFLASGSVNNPETSSYHLEIFSVYEEHNEAICALMNQFDLNARTLERKNGFITYLKEAEKITEFLSIIGATSALLHFEDVRIMRDMRNSVNRLVNCETANLNKTINAAVRQIDNIKYIQSTVGLEALPERLREIAALRIANEDVTLKELGEMLTTGQVSKSGINHRLRKLDQIAERLRSGETPAQVGLKVSNS	failed
MSFEEFTPLNEKSLVDYIKSTPALSSKIGADKSDDDLVIKEVGDGNLNFVFIVVGSSGSLVIKQALPYIRCIGESWPMTKERAYFEATTLRKHGNLSPDHVPEVYHFDRTMALIGMRYLEPPHIILRKGLIAGIEYPFLADHMSDYMAKTLFFTSLLYHDTTEHRRAVTEFCGNVELCRLTEQVVFSDPYRVSTFNRWTSPYLDDDAKAVREDSALKLEIAELKSMFCERAQALIHGDLHTGSVMVTQDSTQVIDPEFSFYGPMGFDIGAYLGNLILAFFAQDGHATQENDRKEYKQWILRTIEQTWNLFNKRFIALWDQNKDGPGEAYLADIYNNTEVLKFVQENYMRNLLHDSLGFGAAKMIRRIVGVAHVEDFESIEEDKRRAICERSALEFAKMLLKERRKFKSIGEVVSAIQQQS	failed
MSGDAATDADAGRAGPGGVFGVGFRSLLRREILRFVRRPRNTFAPPAITNVLYFAVFGVILGQRIDDIAGFDYIVFLLPGLVVLGAISNAFENASFSIFHGRWNEYIHETLTAPLSYSSMVLAYVFAAALRGIIVGLIIVAVGLVFTTVPVNEPLYLAAFMVVVPLLFASLGVIGGLVAEDFDDLTVMNQFILRPLVFFGAVFYSLEILPPLYRTLSLLNPMVYMVNGVRYGFLGYQEVDPLASLAVLSGLTAAVIVLDIYLFKRGYGLID	failed
MSGFDLIIFDCDGVLVDSEIIAAQVESRLLTEAGYPISVEEMGERFAGMTWKNILLQVESEASIPLSASLLDKSEKLLDMRLERDVKIIDGVKFALSRLTTPRCICSNSSSHRLDMMLTKVGLKPYFAPHIYSAKDLGADRVKPKPDIFLHGAAQFGVSPDRVVVVEDSVHGIHGARAAGMRVIGFTGASHTYPSHADRLTDAGAETVISRMQDLPAVIAAMAEWEGAF	not failed
MSGLRAGHMPKGRLSGRPSFYFFSQAKLMSRQLDHGRETLMDIFHRHRLSNEGYAASVLERAMQTAEHRPEALVWKGMAALAHNPKLAFLFFINAAQLLPDRADVQALVGRALLAQGLAVLATRYLTQAWQKLPDDASLRMLLWQARSQSEPPATLRSMILAHLPEINAPKELAQVIKLLAAQADAPRRIGVVRYLETHREIQGWAIDLGNLQAPASLKIEADSVNVDAVASIPHPLLSAAGLCTTHGGLRVSVPNPKAQVHIRFADNTHLVGSPVFAMPSFVPPIEQGTQVEQKHVDVLIPVYNGLHETLECINSALEARKLNRTPHRLVVIEDATPVPALAKALKMLAGKGKITLVNNAVNMGFIRTMNRAMALSPGRDVVWLNADTRVQGNWLDRLRNIAHSSADIASVTPFTNNGELMSFPQSQVSHAMPNAREQAALDELAKHANISPVEIETGCGFCLYIKRAALNQVGYLDEVYLARGYGEETDWCLRARSFGWRHMGAPNVFVAHQGGISFGAEKTLRVAHNNAILRRRYPGASARYSAFCLRDPIKAARDALQRARLARFAQQSDEQKASQWPMEAGNTLHIHDGTGADSTLSLVWHRDSHRTWVTLKAPLAPLPLELDYEMPGEFSELVQNLATLPLKGVVLEHQVQCPSKLCDLPSLLNIPYTIVHRDGHLQGLDATYDWQRLANRAESVVLPWQSWHSAFAEAFPQANLVIQPCAELPTPATSQPNILLIGDALDDTDIIQTWVRLGRRITRERLPLTLLVKQDTPWLKTLSATGAVQALPQVTGFSLPEIAKATGCDAVVSLAASPGEKWLAPELASQLDLPLYTRCHSLGTEAGATCVTQLPFSLSQA	failed
MSGPGSDPVFAALTRPQMVAGVTYSYAVFNLIVTMEAFLISKSFWALLIAPLVHAVGYLGCLNEPRFFDLWITKVSRCPNIRNRGFWQANSYRP	failed
MSGQHRTRVGGVILAAGRSSRYESGNKLLATIDGKAVVRQVTETACKSSLSDAVAVLGHEKVAVAAALDGLSLSVQHNDEYATGQSASVRHGVEFARSAGWDAALFLLGDMPFVRVETIEELLEAYRTGTATVVVPEHEGRRGNPVLFDNCHFDSLASVSGDRGGRDIIETTEKTAFIEVSDPGVHWDIDTDADLAEFTDRRDSLLEHHHHHH	not failed
